Measurements published in the supplement of paper PMC9170038.

Tested on: MS2 coat protein
Assay: apparent KD of MS2 coat protein; higher = weaker reporter binding
Details: Eterna round: R107
Procedure, shortened: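 Designed RNA switches were transcribed on-chip from Illumina sequencing clusters and titrated with SNAP-549-labelled MS2 coat protein in twofold steps from 0.7 or 1.5 nM up to 3 µM. Each step lasted 0.8–1.5 h at first and 10–20 min by the end, in 100 mM Tris-HCl pH 7.5, 80 mM KCl and 4 mM MgCl2, without or with constant ligand. Apparent KD is the median, for each design, of fits to normalised cluster binding curves.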

[1] = input ligand: theophylline 20 uM
[2] = input ligand: theophylline 2 mM
[3] = input ligand: tryptophan 2.4 mM

Sequence	apparent KD of MS2 coat protein (input ligand: arginine 13.2 mM) [nM]	apparent KD of MS2 coat protein [1] [nM]	apparent KD of MS2 coat protein [2] [nM]	apparent KD of MS2 coat protein [3] [nM]	apparent KD of MS2 coat protein (input ligand: none) [nM]
UAAUAGAUUACGGCCGCCACUGAAGUGGACUUUAUGAGCAGGAUUCACAUGAGGAUCACCCAUGUCAGGACCGGGUACGUCCAUA [theeternabot_exclusion_MS2_Trp_B_33]	25.6	44	44.3	–	–
UACCGGUGACUCGAUACCAGUCCUCUAAAAUACAUGAGGAUCACCCAUGUAACCUUCCCAGACCCUUGGCAGCGACACAUGGAUA [theeternabot_sameState_MS2_Theo_B_49]	97.7	176	–	147	–
UAGGACAUGAGGAUCACCCAUGUUGUACGGCGAGGACCGGUACGGCCGCCACUCGAGGCGUAAGUAGUAAAGAAUCUGAUUCAAU [theeternabot_sameState_MS2_Trp_A_4]	13.7	40.9	20.7	–	–
UAUAAACAGCCUGGUUACUCGUCGCGCUUGCGAGGACCGGUACGGCCGCCACUCGACCCAUCACAUGAGGAUCACCCAUGUCCCA [theeternabot_exclusion_MS2_Trp_A_25]	29.4	45	38.6	–	–
UAUACAUGAGGAUCACCCAUGUGCCAUGAUACCAGACAUGAAAAUGUCCCUUGGCAGCAUGGUGAUUGUAUAGCGGGAAACCCGA [Utechov]	81.3	261	–	138	–
UAUAUAGAUGGAAGUUCUAUAGAUGCAGAAGGAGCGUAGGAAACUACAGGUAGGUCGCUGAGGUACAUGAGGAUCACCCAUGUAG [SSArg A #20 Slice of Pi]	14.3	40.5	26.4	22.5	26.4
UAUAUAUAGAUGGAUACCAGCAGAGAAAACGUUUAUCCUAACAUGAGGAUCACCCAUGUAUGCCCUUGGCAGCUGUUUAUAUAUA [8.I]	18.9	31.5	–	22.6	–
UAUAUAUAUCACGAACUGUGGUGUAUGUCUCGAGGACCGGUACGGCCGCCACUCGCGCGGCCUCACAUGAGGAUCACCCAUGUUG [XTryp A #6]	27.9	73.7	78.5	–	–
UAUCCACAUGAGGAUCACCCAUGUAAGGAAGGAGCGGUGAAUGAACCAGGUAGGUCGCCUUGGUGAGGAUCAUCUAUGGAUUCGU [Exclusion - Arginine A (Freestyle 10)]	28	65.9	43.5	41.8	36.8
UAUCCACAUGAGGAUCACCCAUGUUAGGAAGGAGCGGUGAAUGCACCAGGUAGGUCGCCUAGCUGAGGACUGUCGGUGGAUUCGU [Exclusion - Arginine A (Freestyle 19)]	33	47	53	40.3	39.4
UCACAUGAGGAUCACCCAUGUACAGGCGAUACCAGCCGUACAUUGGGCCCUUGGCAGCGCACCGAGACCUUUAUAAGCACCUCGG [Zaoranorre]	67	207	–	15.7	–
UCAGAUGAGGCGGCCGCCACUCGCGGAUAACGAUAGAUUAACAUGAGGAUCACCCAUGUGUCAUGGAGGACCGGGCCCAUGACAU [kjmullin]	23.8	42.3	35.1	–	–
UCAGUGCAGGGAAGGAGCGGGUACAUGAGGAUCACCCAUGUGCAAGUGGUGAGCGUCCGUGCCCAGGUAGGUCGCCCAGCCUGGU [Atarteedon]	69.2	235	198	108	121
UCCUCCUCCGGAAGGAGGAGGAGUUGCGAUACCAGCCCGGAAACGGGCCCUUGGCAGCGCACAUGAGGAUCACCCAUGUCAUGUU [#1 Exclusion - Theophylline A Attempt #7 (HarryS)]	16.7	26.3	–	18.8	–
UCGCUCUGGGUGAGAUCCGGAGAUAUGGAAGGAGCGCUGAUUCCAGCAGGUAGGUCGCCAACGGACAUGAGGAUCACCCAUGUAC [Same State - Arginine A (Freestyle 11)]	36.6	60.4	55.5	43.1	46.9
UCGCUCUGGGUGAGAUCCGGAGAUGUGGAAGGAGCGCUGGAAACAGCAGGUAGGUCGCCAACGGACAUGAGGAUCACCCAUGUAC [Same State - Arginine A (Freestyle 19)]	41.4	75.3	31.9	81.5	44.4
UCGCUCUGGGUGGAAUCCGGAGAUGUGGAAGGAGCGCUCGAAAGGGCAGGUAGGUCGCCAACGGACAUGAGGAUCACCCAUGUAC [#23 Same State - Arginine A]	29.4	37.5	39.8	49.2	25.4

Sequence	apparent KD of MS2 coat protein (input ligand: arginine 13.2 mM) [nM]	apparent KD of MS2 coat protein [1] [nM]	apparent KD of MS2 coat protein [2] [nM]	apparent KD of MS2 coat protein [3] [nM]	apparent KD of MS2 coat protein (input ligand: none) [nM]
UCGGACAUGAGGAUCACCCAUGUAAAUCCUCGAGGACCGGUACGGCCGCCACUCGAACGAGUGGCACGCGAGUGCGCACUCGCGU [aEa]	24.1	47.8	34	–	–
UCGGCAGUGAACGAUACCAGCGUCACGUGGCCGGUGGUCACAUGAGGAUCACCCAUGUAACGCCCUUGGCAGCGUGCGCGUACCG [Zaancebi]	15.1	63.5	–	27.3	–
UCGGGCAGAGCGGCCGCCACUGUUUGGCAUGCGGAUGAAGGAACAUGAGGAUCACCCAUGUAGAUUAGGACCGGGCUUGCGGAGA [rvcmullin]	19.1	22.1	23.8	19.5	18.2
UCGGGCAGAGCGGCCGCCACUGUUUGGCGUGCGGAUGACGGAACAUGAGGAUCACCCAUGUUGAUUAGGACCGGGCUUGCGGAGA [qpqullin]	11.3	24.1	13.8	14.7	14.7
UCGUGCAGAGCGGCCGCCACUGUAUUGCGUGCGGAUGACGGAACAUGAGGAUCACCCAUGUUGUUUAGGACCGGGCUUGCCACCA ['xmullin]	12.4	15.9	14.3	–	–
UCGUUGAAGUCGGCCGCCACUGAACUCAUGUUCAACAUGAGGAUCACCCAUGUACCUUAUUUUAACAGGACCGGGACUUUGACGA [JR_ExcTryptoB_Sub002]	113	229	164	–	–
UCGUUUGAGGCGGCCGCCACUGGUCUCAUGGUCAACAUGAGGAUCACCCAUGUAUCUUAGUUAAGCAGGACCGGGCCUCGAGCGA [#18 Exclusion Tryptophan B]	38.9	105	95.6	32.3	72.7
UCUGGUAUGACGGCCGCCACUAGAUCGUGAGAAGCCUGCAUACAUGAGGAUCACCCAUGUCUCACUAGGACCGGGUCAUUCCAAU [theeternabot_sameState_MS2_Trp_B_5]	53.8	105	119	–	–
UGAAAGUAGGGAAGGAGCGCUACAACAUGAGGAUCACCCAUGUAAUGAGGAUCACCCAUGUGGCAGGUAGGUCGCCCAAAACAUG [#14 Same State - Arginine B]	85	151	197	181	167
UGACACAUGAGGAUCACCCAUGUCGCGAAACGAGGACCGGUACGGCCGCCACUCGCACAAACUCCUCUCCAGCACCAGCUUUUAG [theeternabot_sameState_MS2_Trp_A_3]	15.4	28.2	24.2	–	–
UGACAUGAGGAUCACCCAUGUAUAACUGAAGGAGCGUCCAUAAGGACAGGUAGGUCGCGGAAUGAACAGAGUGCACGACAUGUUU [Arg A SS t1]	12.8	17.7	14.3	14.2	13.3
UGACGAUACCUGGAUACCAGCGACAUGAGGAUCACCCAUGUAUGAGGAUCAGCCAUGUUAUGCCCUUGGCAGCCACGAAAGUCUU [UUUMULLIN]	37.5	115	–	40.3	–
UGAUACCAGUCGGCCGCCACUACAUGAGGAUCACCCAUGUAUCCUCAACUGCUAGAUACUAGCAGUAGGACCGGGACUGGUAUCU	164	408	459	–	–
UGCGAUUGCUCAGAUACCAGACAUGAGGAUCACCCAUGUACCAAGGUAAAGAAAUAACGUGUCCCUUGGCAGCUGAGCAAUCGCU [MAT - Exclusion Theophlline B - Mod of Eli - D9]	11.9	14	–	11.3	–
UGGGAAGGAGGAAGGAGCGCCAUAAGGGUGACUGUCUGGGUACAUGAGGAUCACCCAUGUAGGCAGGUAGGUCGCCUCGCUCUCA [Bibienoned]	10.3	11.9	10.4	10.4	10.1
UGGGUACAUGAGGAUCACCCAUGUACUGAAGGAGCGAGAAUUAUCUCAGGUAGGUCGCAGACAUGAGGAUCACCCAUGUAGUAGG [Exclusion Arginine A GF 12]	25.3	30.6	37.2	24.2	27.3
UGGGUACCGACGGCCGCCACUGAAUAUAGACAUGAGGAUCACCCAUGUAGAGAUCCUAGAAUAAACAGGACCGGGUCUGGUGCUA [Exclusion Tryptophane B GF5]	92.4	239	293	–	–
